Test results reported in US20220290162.

Biological target: Bxb1 serine integrase with ssrA degradation tag (Mycobacteriophage Bxb1?) (UniProt Q9B086)
Assay: cell_activity
Conditions: attB x attP inversion of P7 promoter, switched cells 42 C vs 37 C; E. coli Nissle

“GGGTTTGTACCGTACACCACTGAGACCGCGGTGGTTGACCAGACAAACCACGA (double strand) [Bxb1 attP]” gave an activity greater than 100 fold.
For “TCGGCCGGCTTGTCGACGACGGCGGTCTCCGTCGTCAGGATCATCCGGGC (double strand) [Bxb1 attB]”, the activity was greater than 100 fold.
